The text below walks through data of patent US12134610B2, “Somatostatin subtype-2 receptor (SST2R) targeted therapeutics and uses thereof” (priority 2022, dated 2024).

The target in data set [1] is T1, human somatostatin receptor subtype 2 (Homo sapiens, UniProt P30874).
T1 construct: expressed in transfected cells
As to the kind of experiment: Functional cAMP assay for SSTR2 agonists (HTRF) in CHO-K1 cells. Type of data set: cell-based. The note with it: CHO-K1 cells stably expressing human SST2, 20 min; read-out: hSST2 cAMP Avg EC50. The essentials:
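CHO-K1 cells stably expressing receptor, plated 4 days before assay, treated 20 min at 37° C. with compound (typically 0-10,000 nM final) plus IBMX and 1.6 μM NKH477 to raise cAMP. HTRF read, 665/620 nm ratio; cAMP from standard curve, EC50 fitted.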
For orientation: Changes in cAMP serve as a functional read-out for many G protein-coupled receptors.

A further data set addresses T2, SST2 (Homo sapiens, UniProt P30874).
T2 construct: host or cells: PathHunter CHO-K1 SST2 cells
As to the kind of experiment: PathHunter CHO-K1 SST2 internalization assay. It is filed as cell-based. The note with it: PathHunter CHO-K1 SST2, 90 min; read-out: Internalization EC50. The essentials: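 PathHunter CHO-K1 SST2 cells, seeded and grown 48 h, were exposed to 11-point 1:3 dilutions of SMDC (top final 10 uM) for 90 min at 37 C, 5% CO2. Beta-Glo luminescence was read after 60 min at room temperature. Background-corrected duplicate means were fitted by four-parameter nonlinear regression to give IC50.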

Data set [2] concerns NCI-H524 (ATCC) human small cell lung cancer cells. It is filed as cell-based. The note with it: 2 h. The essentials: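 NCI-H524 cells (5,000/well) were exposed 24 h after plating to SMDC for 2 h, 11-point two-fold series from 1 uM. After washout they grew a further 70 h. Proliferation was read by CellTiter-Glo luminescence, % inhibition taken vs untreated control, and IC50 fitted by four-parameter nonlinear regression.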

The nature of data set [3]: H524 tumor biodistribution model: tumor and plasma levels of SMDC and MMAE by LC/MS-MS. Type of data set: in vivo, female Athymic nude mice. The note with it: H524 tumor bearing nude mice; for level at time molar at 4 h: 4 h after 500 nmol/kg IV; for level at time molar at 24 h: 24 h after 500 nmol/kg IV. As to the method: In this example, 5 million H524 (Small Cell Lung Cancer) cells in 1:1 Matrigel: cold Media (RPMI1640) were injected into the subcutaneous (SQ) flank of female Athymic nude mice. Tumor volumes and body weights were measured twice a week. The tumors were allowed to grow until they reached 250-500 mm^3 in size before animals were randomized into groups (n=3/time point). Animals were injected intravenously with a SMDC of the present invention at a single dose of 500 nmol/kg. […] BLQ: Below Limit of Quantitation.

[4] abbreviates: MMAE level 4 h after 500 nmol/kg IV of the conjugate.
Where [5] appears, read: MMAE level 24 h after 500 nmol/kg IV of the conjugate.
The mark [6] stands for this setting: MMAE level 72 h after 500 nmol/kg IV of the conjugate.
The mark [7] stands for this setting: MMAE level 168 h after 500 nmol/kg IV of the conjugate.
Where [8] appears, read: MMAE level 240 h after 500 nmol/kg IV of the conjugate.
Setting [9] is: female, Athymic nude, mouse, plasma, read-out: Conjugate Plasma.
Where [10] appears, read: female, Athymic nude, mouse, read-out: Conjugate Tumor.

Where two headings read alike, the source gives them in different places.

T2 sequence (P30874 whole entry): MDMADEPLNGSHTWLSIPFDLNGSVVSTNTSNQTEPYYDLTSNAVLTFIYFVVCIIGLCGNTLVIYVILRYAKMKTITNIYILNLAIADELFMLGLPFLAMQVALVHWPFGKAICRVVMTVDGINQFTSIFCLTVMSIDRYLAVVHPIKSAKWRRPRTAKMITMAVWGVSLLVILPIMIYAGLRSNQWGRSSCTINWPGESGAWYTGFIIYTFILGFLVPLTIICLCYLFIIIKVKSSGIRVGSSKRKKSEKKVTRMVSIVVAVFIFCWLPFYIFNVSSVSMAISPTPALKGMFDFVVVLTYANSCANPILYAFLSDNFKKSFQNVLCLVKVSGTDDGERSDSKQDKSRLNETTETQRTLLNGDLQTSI
T1 sequence (P30874 whole entry): as above

Take `CC[C@H](C)[C@@H]([C@@H](CC(=O)N1CCC[C@H]1[C@H](OC)[C@@H](C)C(=O)N[C@H](C)[C@@H](O)c1ccccc1)OC)N(C)C(=O)[C@@H](NC(=O)[C@H](C(C)C)N(C)C(=O)OCc1ccc(NC(=O)[C@H](CCCNC(N)=O)NC(=O)[C@@H](NC(=O)[C@@H](CS(=O)(=O)O)NC(=O)CCOCCC(=O)NCCNc2ncc(-c3cc(C)cc(F)c3)c(N3CCC(N)CC3)c2-c2nc3ccc(Cl)cc3[nH]2)C(C)C)cc1C(=O)NCCN)C(C)C` [Compound 107]: the 50% effective concentration (EC50) (in general, the concentration needed to bring the measured effect to its halfway point) in data set [1] amounted to 0.15 nM; on SST2, 2.2 nM; in data set [2] it was 4 nM. Also, the “Conjugate Plasma (nM)” value in data set [3] (72 h after 500 nmol/kg IV), in data set [3] (168 h after 500 nmol/kg IV) and in data set [3] (240 h after 500 nmol/kg IV) was “BLQ” in each case. Also, the “Conjugate Tumor (nM)” value in data set [3] (168 h after 500 nmol/kg IV) and in data set [3] (240 h after 500 nmol/kg IV) was “BLQ” each time. In data set [3] (setting [4]), the “MMAE Plasma” value is 2.26 nM. For the same molecule, the “MMAE Tumor” value amounted to 123 nM in data set [3] (setting [4]); 242 nM in data set [3] (setting [5]); 141 nM in data set [3] (setting [6]); 90.1 nM in data set [3] (setting [7]); 25.2 nM in data set [3] (setting [8]). In addition, the “MMAE Plasma (nM)” value in data set [3] (setting [5]), in data set [3] (setting [6]), in data set [3] (setting [7]) and in data set [3] (setting [8]) was “BLQ” each time. Also, the values for the level at time molar at 4 h in data set [3] (setting [9]) and in data set [3] (setting [10]) were 83.1 nM and 94.2 nM, respectively. Moreover, the level at time molar at 24 h was 0.441 nM in data set [3] (setting [9]) and 9.26 nM in data set [3] (setting [10]). Moreover, in data set [3] (female, Athymic nude, mouse, 72 h after 500 nmol/kg IV, read-out: Conjugate Tumor), the level at time molar at 72 h stood at 1.64 nM.
